Data: patent US20040248211A1, “ICAM-related protein” (priority 1992, published 2004)

T1: ICAM-R (Homo sapiens, UniProt P32942)
T1 construct: express the full length ICAM-1 and ICAM-R proteins, respectively; expressed in transfected cells; host or cells: COS cells, DEAE-dextran, plasmid pcDNA1AmpICAM-R
T1 sequence (P32942 30-547): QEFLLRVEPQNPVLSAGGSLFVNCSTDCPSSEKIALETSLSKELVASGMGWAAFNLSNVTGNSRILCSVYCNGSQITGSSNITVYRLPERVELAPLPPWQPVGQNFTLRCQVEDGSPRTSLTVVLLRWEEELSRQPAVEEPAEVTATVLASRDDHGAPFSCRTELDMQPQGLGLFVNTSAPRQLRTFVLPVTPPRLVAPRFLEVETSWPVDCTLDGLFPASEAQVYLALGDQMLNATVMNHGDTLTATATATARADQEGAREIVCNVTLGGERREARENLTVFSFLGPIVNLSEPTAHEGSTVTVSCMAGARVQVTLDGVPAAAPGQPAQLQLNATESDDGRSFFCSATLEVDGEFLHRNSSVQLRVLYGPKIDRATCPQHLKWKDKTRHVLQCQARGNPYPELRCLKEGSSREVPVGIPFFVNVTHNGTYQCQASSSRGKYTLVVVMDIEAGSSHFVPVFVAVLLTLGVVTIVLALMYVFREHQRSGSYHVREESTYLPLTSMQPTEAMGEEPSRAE


Assays:
ICAM-R = target: T1, ICAM-R; experiment: Blocking of biotinylated murine ICR-8.1 binding
Description: However, antibodies containing the humanized heavy chain with the Ile2 mutation show an approximate 2-fold improvement in binding over the aforementioned antibodies. In experiments in blocking the binding of biotinylated murine ICR-8.1 to ICAM-R, the miHu/VHI/HuVK and miHuVHI/MuVK antibodies compete about 2-fold less well than the murine antibody itself.

[1] = target: T2, αd/CD18 transfected CHO cells (Homo sapiens, UniProt P05107+Q13349); experiment: Flow cytometry binding of soluble chimeras; conditions: chimera 5 μg/ml
T2 construct: expressed in transfected cells; host or cells: CHO cells
T2 sequence (Q13349 18-1161): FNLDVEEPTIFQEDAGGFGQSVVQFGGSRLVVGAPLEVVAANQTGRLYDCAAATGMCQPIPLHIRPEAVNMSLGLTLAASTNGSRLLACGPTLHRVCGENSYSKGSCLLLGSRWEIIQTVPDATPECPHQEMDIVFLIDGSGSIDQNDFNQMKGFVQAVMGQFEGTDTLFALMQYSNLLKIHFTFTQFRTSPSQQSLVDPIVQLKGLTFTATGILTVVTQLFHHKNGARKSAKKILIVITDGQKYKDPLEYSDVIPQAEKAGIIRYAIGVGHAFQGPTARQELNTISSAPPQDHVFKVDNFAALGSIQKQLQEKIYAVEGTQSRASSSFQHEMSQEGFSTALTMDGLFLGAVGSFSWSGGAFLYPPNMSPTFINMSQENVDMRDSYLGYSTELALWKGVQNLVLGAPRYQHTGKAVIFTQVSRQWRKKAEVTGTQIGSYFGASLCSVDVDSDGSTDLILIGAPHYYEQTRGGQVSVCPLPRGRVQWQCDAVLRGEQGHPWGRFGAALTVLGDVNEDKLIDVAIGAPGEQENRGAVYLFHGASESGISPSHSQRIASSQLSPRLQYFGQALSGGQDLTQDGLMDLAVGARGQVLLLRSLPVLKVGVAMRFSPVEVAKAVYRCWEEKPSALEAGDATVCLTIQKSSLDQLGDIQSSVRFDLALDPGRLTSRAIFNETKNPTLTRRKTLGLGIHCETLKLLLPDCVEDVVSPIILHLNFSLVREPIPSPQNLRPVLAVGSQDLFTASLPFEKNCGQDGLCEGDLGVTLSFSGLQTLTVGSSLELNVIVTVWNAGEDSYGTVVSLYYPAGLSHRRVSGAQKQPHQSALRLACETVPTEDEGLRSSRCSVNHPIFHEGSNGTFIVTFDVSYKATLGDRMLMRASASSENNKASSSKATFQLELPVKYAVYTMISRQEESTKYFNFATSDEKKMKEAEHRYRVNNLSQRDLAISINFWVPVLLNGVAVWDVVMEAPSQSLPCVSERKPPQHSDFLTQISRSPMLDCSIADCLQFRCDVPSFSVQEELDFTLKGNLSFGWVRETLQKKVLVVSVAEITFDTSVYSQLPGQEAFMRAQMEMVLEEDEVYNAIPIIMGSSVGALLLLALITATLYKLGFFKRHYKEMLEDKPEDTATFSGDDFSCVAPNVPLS
T2 sequence (P05107 23-769): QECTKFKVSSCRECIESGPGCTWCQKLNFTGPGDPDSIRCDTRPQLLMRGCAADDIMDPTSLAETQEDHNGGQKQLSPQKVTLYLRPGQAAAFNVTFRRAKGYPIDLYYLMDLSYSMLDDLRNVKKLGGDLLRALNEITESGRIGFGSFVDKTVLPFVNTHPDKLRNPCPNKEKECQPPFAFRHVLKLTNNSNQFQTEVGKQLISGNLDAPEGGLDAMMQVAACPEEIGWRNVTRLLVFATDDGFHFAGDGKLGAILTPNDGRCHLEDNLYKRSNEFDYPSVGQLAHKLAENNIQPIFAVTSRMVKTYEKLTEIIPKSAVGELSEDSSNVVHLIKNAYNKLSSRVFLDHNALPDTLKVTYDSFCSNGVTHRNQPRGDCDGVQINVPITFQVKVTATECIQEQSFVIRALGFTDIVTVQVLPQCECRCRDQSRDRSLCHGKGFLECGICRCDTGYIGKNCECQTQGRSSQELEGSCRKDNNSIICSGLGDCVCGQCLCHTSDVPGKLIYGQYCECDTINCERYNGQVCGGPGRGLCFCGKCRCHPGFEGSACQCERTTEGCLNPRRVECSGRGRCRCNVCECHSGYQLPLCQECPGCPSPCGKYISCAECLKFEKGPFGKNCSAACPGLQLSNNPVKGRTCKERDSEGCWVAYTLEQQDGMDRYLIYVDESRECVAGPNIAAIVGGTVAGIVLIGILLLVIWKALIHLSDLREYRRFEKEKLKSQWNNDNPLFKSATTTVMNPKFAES
Method: Binding of αd/CD18-transfected cells to soluble ICAM-1/IgG, ICAM-R/IgG, or VCAM-1/IgG chimeras was determined by flow cytometry. Approximately one million αd/CD18-transfected CHO cells (grown in spinner flasks for higher expression) per measurement were suspended in 100 μl binding buffer (RPMI and 1% BSA) with or without 10 μg/ml anti-CD18 antibody. After a 20 minute incubation at room temperature, the cells were washed in binding buffer and soluble ICAM-1/IgG or ICAM-R/IgG chimera was added to a final concentration of 5 μg/ml. Binding was allowed to proceed for 30 minute at 37° C., after which the cells were washed three times and resuspended in 100 μl binding buffer containing FITC-conjugated sheep anti-human IgG1 at a 1:100 dilution. After a 30 minute incubation, samples were washed three times and suspended in 200 μl binding buffer for analysis with a Becton Dickinson FACScan.

[2] = target: T2, αd/CD18 transfected CHO cells; experiment: Binding of transfected CHO cells to immobilized chimeras; type: cell-based; conditions: immobilized chimera
Method: (§1) In replicate assays, soluble ICAM-1, ICAM-R, or VCAM-1 IgG1 chimeric fusion proteins were immobilized on plastic and the ability of αd/CD18 or LFA-1 transfected CHO cells (see co-owned, concurrently filed U.S. patent application Ser. No. 08/286,889 identified as attorney docket No. 32168) to bind the immobilized ligand was determined. Transfected cells were labeled internally with calcein, washed in binding buffer (RPMI with 1% BSA), and incubated in either buffer only (with or without 10 ng/ml PMA) or buffer with anti-CD18 at 10 μg/ml. Transfected cells were added to 96-well Immulon 4 microtiter plates previously coated with soluble ICAM-1/Ig, ICAM-R/Ig or VCAM-1/Ig chimera, or bovine serum albumin (BSA) as a negative control. Wells were blocked with 1% BSA in PBS prior to addition of labeled cells. After washing the plates by immersion in PBS with 0.1% BSA for 20 minutes, total fluorescence remaining in each well was measured using a Cytofluor 2300 (Millipore, Milford, Mass.).

T cells [3] = experiment: IL-2 production in response to anti-CD3 and ICAM-R proteins; type: cell-based, human; conditions: in comparison to the HSA control
VLA-4 = VLA-4 (Homo sapiens, UniProt P05556+P13612); experiment: Integrin binding of ICAM-R/IgG variants
T cells [4] = experiment: T-cell proliferation in response to CD3 mAb with recombinant ICAM-R; type: cell-based, human; conditions: in comparison to the HSA control
Method: T cell costimulation by recombinant ICAM-R and CD3 antibody in the presence of monoclonal antibodies which block ICAM-R adhesion to VLA-4 was measured (Example 21F). The monoclonal antibodies tested were specific for domain 3 of ICAM-R or the α4 subunit of VLA-4.
Both variants were tested for effects on T-cell proliferation in response to CD3 mAb. […] Similar levels of costimulation were induced by the LFA-1 binding D231H-Ig or wild-type ICAM-R/Ig chimera which binds both LFA-1 and VLA-4.

LFA-1 = LFA-1 (Homo sapiens, UniProt P05107+P20701); experiment: Integrin binding of ICAM-R/IgG variants
Chain of LFA-1 (P20701 26-1170): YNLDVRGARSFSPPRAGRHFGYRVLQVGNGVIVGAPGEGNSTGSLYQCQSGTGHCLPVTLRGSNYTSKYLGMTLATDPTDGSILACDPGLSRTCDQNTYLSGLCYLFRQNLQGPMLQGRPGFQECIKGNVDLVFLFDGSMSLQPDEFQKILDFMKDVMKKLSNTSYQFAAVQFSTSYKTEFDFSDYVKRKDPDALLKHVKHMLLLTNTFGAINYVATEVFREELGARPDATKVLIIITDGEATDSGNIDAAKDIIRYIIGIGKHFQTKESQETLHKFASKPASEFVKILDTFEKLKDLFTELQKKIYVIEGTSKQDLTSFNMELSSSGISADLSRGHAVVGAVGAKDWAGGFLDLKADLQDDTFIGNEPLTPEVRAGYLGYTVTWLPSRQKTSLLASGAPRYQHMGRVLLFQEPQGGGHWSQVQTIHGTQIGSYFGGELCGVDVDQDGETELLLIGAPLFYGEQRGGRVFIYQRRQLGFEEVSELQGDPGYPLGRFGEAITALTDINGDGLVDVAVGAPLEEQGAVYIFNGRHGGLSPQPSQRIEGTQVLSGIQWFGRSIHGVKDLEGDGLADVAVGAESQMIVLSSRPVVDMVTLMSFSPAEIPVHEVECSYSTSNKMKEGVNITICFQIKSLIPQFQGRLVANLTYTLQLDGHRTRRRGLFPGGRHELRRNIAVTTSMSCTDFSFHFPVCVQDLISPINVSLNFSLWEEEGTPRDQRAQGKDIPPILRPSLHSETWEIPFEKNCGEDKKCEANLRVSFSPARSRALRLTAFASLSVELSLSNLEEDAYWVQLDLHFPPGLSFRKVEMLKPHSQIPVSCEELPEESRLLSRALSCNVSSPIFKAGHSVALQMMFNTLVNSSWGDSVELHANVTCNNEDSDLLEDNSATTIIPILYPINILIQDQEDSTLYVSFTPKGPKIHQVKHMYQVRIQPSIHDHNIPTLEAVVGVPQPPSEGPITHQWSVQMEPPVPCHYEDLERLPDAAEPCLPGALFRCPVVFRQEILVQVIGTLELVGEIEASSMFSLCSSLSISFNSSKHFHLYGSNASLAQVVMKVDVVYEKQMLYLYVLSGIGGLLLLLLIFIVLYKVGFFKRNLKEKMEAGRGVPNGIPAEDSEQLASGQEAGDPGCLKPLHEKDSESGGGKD
Chain of LFA-1 (P05107 23-769): as the sequence (P05107 23-769) above

[5] = target: T3, LFA-1 transfected CHO cells (Homo sapiens, UniProt P05107+P20701); experiment: Binding of transfected CHO cells to immobilized chimeras; type: cell-based; conditions: only following pretreatment with PMA
T3 construct: expressed in transfected cells; host or cells: CHO cells
T3 sequence (P20701 26-1170): as the sequence (P20701 26-1170) above
T3 sequence (P05107 23-769): as the sequence (P05107 23-769) above
Method: as §1

Row | Molecule | αd/CD18 transfectants binding soluble chimera [1] | VLA-4 binding (VLA-4) | LFA-1 binding (LFA-1) | IL-2 production in response to CD3 mAb (T cells [3]) | T-cell proliferation in response to CD3 mAb (T cells [4]) | also measured
1 | miHu/VHI/HuVK: ICR-8.1 miHuVHI (Val2 to Ile2) heavy chain with humanized VK (antibody, V domains shown) VH: QIQLVQSGAEVKKPGASVKVSCKASGYTFTDCIILWVRQAPGQGLEWMGKINPYFGTTTYAQKFQGRVTITADTSTSTAYMELSSLRSEDTAVYYCARKEAYPDAMDYWGQGTLVTVSS VL: DIVMTQSPLSLPVTPGEPASISCRSSQSLVHSNGDTYLHWYLQKPGQSPQLLIYKVSNRFSGVPDRFSGSGSGTDFTLKISRVEAEDVGVYYCSQSTHVPYTFGQGTKVEIK | – | – | – | – | – | compete less well than murine ICR-8.1 in blocking binding of biotinylated murine ICR-8.1 (ICAM-R): about 2 fold
2 | ICAM-1/IgG: soluble ICAM-1 IgG1 chimeric fusion protein (protein, left off: a dimerising Fc or GST, soluble ICAM-1 IgG1 chimeric fusion protein) QTSVSPSKVILPRGGSVLVTCSTSCDQPKLLGIETPLPKKELLLPGNNRKVYELSNVQEDSQPMCYSNCPDGQSTAKTFLTVYWTPERVELAPLPSWQPVGKNLTLRCQVEGGAPRANLTVVLLRGEKELKREPAVGEPAEVTTTVLVRRDHHGANFSCRTELDLRPQGLELFENTSAPYQLQTFVLPATPPQLVSPRVLEVDTQGTVVCSLDGLFPVSEAQVHLALGDQRLNPTVTYGNDSFSAKASVSVTAEDEGTQRLTCAVILGNQSQETLQTVTIYSFPAPNVILTKPEVSEGTEVTVKCEAHPRAKVTLNGVPAQPLGPRAQLLLKATPEDNGRSFSCSATLEVAGQLIHKNQTRELRVLYGPRLDERDCPGNWTWPENSQQTPMCQAWGNPLPELKCLKDGTFPLPIGESVTVTRDLEGTYLCRARSTQGEVTRKVTVNVLSPRYE | no binding | – | – | – | – | increase in binding of LFA-1 transfected cells [5]: 2-3 fold

Second part, led by results:

Row | αd/CD18 transfectants binding soluble chimera [1] | VLA-4 binding (VLA-4) | LFA-1 binding (LFA-1) | Molecule | IL-2 production in response to CD3 mAb (T cells [3]) | T-cell proliferation in response to CD3 mAb (T cells [4]) | also measured
3 | no binding | – | – | VCAM-1/IgG: soluble VCAM-1 IgG1 chimeric fusion protein (protein, left off: a dimerising Fc or GST, soluble VCAM-1 IgG1 chimeric fusion protein) FKIETTPESRYLAQIGDSVSLTCSTTGCESPFFSWRTQIDSPLNGKVTNEGTTSTLTMNPVSFGNEHSYLCTATCESRKLEKGIQVEIYSFPKDPEIHLSGPLEAGKPITVKCSVADVYPFDRLEIDLLKGDHLMKSQEFLEDADRKSLETKSLEVTFTPVIEDIGKVLVCRAKLHIDEMDSVPTVRQAVKELQVYISPKNTVISVNPSTKLQEGGSVTMTCSSEGLPAPEIFWSKKLDNGNLQHLSGNATLTLIAMRMEDSGIYVCEGVNLIGKNRKEVELIVQEKPFTVEISPGPRIAAQIGDSVMLTCSVMGCESPSFSWRTQIDSPLSGKVRSEGTNSTLTLSPVSFENEHSYLCTVTCGHKKLEKGIQVELYSFPRDPEIEMSGGLVNGSSVTVSCKVPSVYPLDRLEIELLKGETILENIEFLEDTDMKSLENKSLEMTFIPTIEDTGKALVCQAKLHIDDMEFEPKQRQSTQTLYVNVAPRDTTVLVSPSSILEEGSSVNMTCLSQGFPAPKILWSRQLPNGELQPLSENATLTLISTKMEDSGVYLCEGINQAGRSRKEVELIIQVTPKDIKLTAFPSESVKEGDTVIISCTCGNVPETWIILKKKAETGDTVLKSIDGAYTIRKAQLKDAGVYECESKNKVGSQLRSLTLDVQGRENNKDYFSPE | – | – | increase in binding of αd/CD18 co-transfectants over BSA coated wells [2]: No detectable binding
4 | – | binds VLA-4 | not LFA-1 | E37T-Ig: ICAM-R/IgG variant which binds VLA-4 but not LFA-1 (protein, left off: a dimerising Fc or GST) QEFLLRVEPQNPVLSAGGSLFVNCSTDCPSSEKIALASSLSKELVASGMGWAAFNLSNVTGNSRILCSVYCNGSQITGSSNITVYGLPERVELAPLPPWQPVGQNFTLRCQVEGGSPRTSLTVVLLRWEEELSRQPAVEEPAEVTATVLASRDDHGAPFSCRTELDMQPQGLGLFVNTSAPRQLRTFVLPVTPPRLVAPRFLEVETSWPVDCTLDGLFPASEAQVYLALGDQMLNATVMNHGDTLTATATATARADQEGAREIVCNVTLGGERREARENLTVFSFLGPIVNLSEPTAHEGSTVTVSCMAGARVQVTLDGVPAAAPGQTAQLQLNATESDDGRSFFCSATLEVDGEFLHRNSSVQLRVLYGPKIDRATCPQHLKWKDKTRHVLQCQARGNPYPELRCLKEGSSREVPVGIPFFVNVTHNGTYQCQASSSRGKYTLVVVMDIEAFSSH | inhibited IL-2 production | markedly inhibited T-cell proliferation | –
5 | – | reduced VLA-4 binding capacity | retaining full LFA-1 binding capacity | D231H-Ig: ICAM-R/IgG variant with reduced VLA-4 binding, full LFA-1 binding (protein, left off: a dimerising Fc or GST) QEFLLRVEPQNPVLSAGGSLFVNCSTDCPSSEKIALETSLSKELVASGMGWAAFNLSNVTGNSRILCSVYCNGSQITGSSNITVYGLPERVELAPLPPWQPVGQNFTLRCQVEGGSPRTSLTVVLLRWEEELSRQPAVEEPAEVTATVLASRDDHGAPFSCRTELDMQPQGLGLFVNTSAPRQLRTFVLPVTPPRLVAPRFLEVETSWPVDCTLDGLFPASEAQVYLALGHQMLNATVMNHGDTLTATATATARADQEGAREIVCNVTLGGERREARENLTVFSFLGPIVNLSEPTAHEGSTVTVSCMAGARVQVTLDGVPAAAPGQTAQLQLNATESDDGRSFFCSATLEVDGEFLHRNSSVQLRVLYGPKIDRATCPQHLKWKDKTRHVLQCQARGNPYPELRCLKEGSSREVPVGIPFFVNVTHNGTYQCQASSSRGKYTLVVVMDIEAFSSH | to a lesser extent | enhanced CD3 mAb driven T-cell proliferation | –
